Here are results for 1 substance from patent US20110124010A1.

Test [1] deals with Myelin basic protein (MBP) (human) (UniProt P02686). Description: flow cytometry, intracellular staining of CD14+ macrophages from peripheral blood; isotype control background. (In general: A flow cytometer gives signals particle by particle.)
Test [2] shares this target. Description: flow cytometry, intracellular staining of CD14+ macrophages from CSF; isotype control background.

UniProt P02686, sequence (P02686 whole entry): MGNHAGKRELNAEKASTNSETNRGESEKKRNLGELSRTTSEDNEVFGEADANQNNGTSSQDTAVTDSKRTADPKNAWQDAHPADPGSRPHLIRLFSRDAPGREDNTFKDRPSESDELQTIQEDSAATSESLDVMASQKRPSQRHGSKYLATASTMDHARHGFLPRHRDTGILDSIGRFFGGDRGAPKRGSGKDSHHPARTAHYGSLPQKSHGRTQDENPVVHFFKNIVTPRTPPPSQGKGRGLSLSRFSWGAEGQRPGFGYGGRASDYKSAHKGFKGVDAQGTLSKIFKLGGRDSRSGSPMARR

Turning to “Non-specific isotype specific antibody (Rabbit IgG) from Epitomics”, in test [1], the Geometric Mean FI stood at 766 and the Mean FI was 783. Further, in test [2], the Geometric Mean FI came out at 292 and the Mean FI turned out to be 328.
